This is an account of results in paper PMC8767016, “The Bacteroidetes Aequorivita sp. and Kaistella jeonii Produce Promiscuous Esterases With PET-Hydrolyzing Activity” (Frontiers in Microbiology, 2022).

One data set concerns the target T1, PET30ΔPorC (Kaistella jeonii, UniProt A0A0C1F4U8).
T1 construct: gene OA86_11720; C-terminal PorC (T9SS) sorting domain 300-366 deleted; signal peptide removed; His-tagged, E. coli host; monomer in asymmetric unit
Description: pNP release at […] nm, relative activity. The data set is classed as biochemical. The following applies: 30°C.

Substrate in the data set “purified protein”: CCCCCC(=O)Oc1ccc([N+](=O)[O-])cc1
Kind of data set: purified protein. It is filed as biochemical, Kaistella jeonii. To be noted: 30°C, pH 8.

The term Km denotes the substrate concentration at which the rate is half of its maximum. What is called kcat is the maximal rate divided by the concentration of active sites.

For `CCCCCC(=O)Oc1ccc([N+](=O)[O-])cc1` [pNP-C6], at PET30ΔPorC, the “pNP release at 405 nm, relative activity” value was “Activity tests confirmed that it was not affected in its activities using pNP-C6”.

B1: PET30 (Kaistella jeonii) (protein)
chain: QCTGATVESLTNPGPYTVATLSEADGVRNGPKYAGSTIYYPTNATPPYASIAIVPGFTAAPSSVQEWGPFYASHGIVAIIIGTNSLYDQPEARALALLDALETIKQENGRATSPLIGKLDVTKLAVSGWSMGGGGAQRAAVLDNTISAVVALCPYLTSPQLNHTVPVLIFSGQSDPTAPPSQHANVHYNTTPGTTNKLLFEVKNGNHSVANSPTGGGGAVGKLALSWLKIYLEKNDCYCSVLATAIVNSTTVSSKISQSYQCNNALGVVDSKTRFNLYPNPTKDFVQVNVREMASYQLSSSTGQIVLKGIVTSSKNQIDLSKLPAGVYYLQINGETIKVIKKQ
notes: signal peptide removed, Met added; C-terminal 6xHis (pET21a), E. coli host, Ni-NTA; PorC (T9SS) domain kept
On to B1, for which, in the data set “purified protein”, the Km came to 300 µM and the kcat is 8.9 s⁻¹.
